Data as given in article PMC6347577 (Journal of the American Chemical Society, 2018).

Target: the molecule itself
Experiment: native MS

B1: hepatitis B virus (HBV) capsid protein Cp149 (truncated form containing only the assembly domain), dimer (domain or fragment)
chain: MDIDPYKEFGATVELLSFLPSDFFPSVRDLLDTAAALYRDALESPEHCSPHHTALRQAILCWGDLMTLATWVGTNLEDPASRDLVVSYVNTNVGLKFRQLLWFHISCLTFGRETVLEYLVSFGVWIRTPPAYRPPNAPILSTLPETTVV
Question: B1 was tested. Which “stoichiometry N” value did it give?
Answer: ~90 dimers
